Blank lines part the entries; values can stand above or below the molecule they belong to.
Assay: Bioconversion of eugenol to vanillin: one-pot concurrent cascade EUGO + alkene cleavage oxygenase (5 mM scale)
Assay type: biochemical
Settings: Table 8b, EUGO FD-CFE 1 mg/mL, CO-0X FD-CFE 1 mg/mL, catalase 10 mg/mL, eugenol 5 mM
Description: Stock solutions of eugenol (100 mM) were prepared in ethanol or DMSO and stored at −20° C. Unless otherwise stated, the reaction mixtures (0.5 mL) were set up in 1.5 mL glass vials as follows: freeze-dried cell free extract of IECO/CO-XX (3 mg) and EUGO (0.5 mg) were dissolved in the reaction buffer (50 mM glycine-NaOH pH 9.0) containing sodium ascorbate (1 mM), FeSO4 (1 mM) and bovine liver catalase (5 mg, Sigma Aldrich C40). The reaction was initiated by the addition of 0.025 mL eugenol stock (final concentration 5 mM), then incubated at 30° C. and 120 rpm overnight (rotary shaker). The final content of cosolvent was 5% v/v. To improve oxygenation, the vials were placed horizontally. At certain time points, samples (0.2 mL) were quenched with methanol (0.4 mL) and the mixture was centrifuged at 20238 g for 5-10 mins. Finally, the supernatant was analysed by HPLC.
EUGO (0.5 mg CFE), CO-25 (3 mg CFE) and catalase (5 mg, Sigma product #C40) were dissolved in 50 mM Glycine-NaOH pH 9.0 or Tris-HCl pH 8.0 together with FeSO4 (1 mM) and sodium ascorbate (1 mM). Note that the buffer content of the freeze-dried biocatalyst prep was not considered for the assembling of the reaction. The reaction was started by the addition of 5 mM eugenol from a 20× stock in ethanol. The reactions—performed in glass vials—were then incubated at 30° C. and 120 rpm (25 mm shaker). Finally, samples of the reaction mixture were diluted with MeOH and analyzed by HPLC at 280 and 340 nm.

Product distribution after 24 hours 2a (%) (pH 8.0): 73.1%
Product distribution after 24 hours 3a (%) (pH 8.0): 7.8%
Product distribution after 24 hours 5a (%) (pH 8.0): 19.1%
Product distribution after 24 hours 2a (%) (pH 9.0): 65.8%
Product distribution after 24 hours 3a (%) (pH 9.0): 11.8%
Product distribution after 24 hours 5a (%) (pH 9.0): 22.5%
B1: CO-17: alkene cleavage oxygenase, Coniochaeta pulveracea, SEQ ID NO: 82 (protein, listed as Coniochaeta pulveracea)
chain: MAHIFDLAPEVSLPDEPIYKDGKLHRPNHVQFPQTPVFASMNKPSRFEGTILSLEHTGIIPPEINGTFFRVQPDHRFPPMFEDDIHFNGDGSVTAIRIFDGKVDFRQRYVHTERYKAETKARRSLFGRYRNPWTDNESVKGVIRTASNTNVFFWRGMLLATKEDGPPYAMDPVTLETYGRYDFEGQILSPTFTAHPKFDPRTGEMVCFAYETGGDGADCSREVMVWTLDKDGKKVSERWFEAPFAGMIHDCGLSENWLVLPLTPIKMDLERMKRGGNKFAWDPKEDQVYGLVPRRGDGEVKWFRGENAFHGHVAGCYENAQGHVVIDLTVADGNVFFWFPPDGEEQGQFAKRNKLSSPTHRWILDPSLPNNARITPALVWPTNGEFSRIDDRWTTRKYKHFWLAKVDPSRPYDFAKCGPPAGGLFNCLGHYTWDLDNELATGQEDVYFAGPTCTFQEPTFIPKGDKEGEGWLIALVNHLDVLRNDVVILDAQNLAKGPVCTIHLPLKLKLGLHGNWVDWRDIEDWTKRRQEDGEVGPVQVATEMLPWQKAFWEKEKEKNGNGVEGPNINGTNGANGTNGVNGSSH

Product distribution after 24 hours 2a (%) (pH 8.0): 59.4%
Product distribution after 24 hours 3a (%) (pH 8.0): 23.6%
Product distribution after 24 hours 5a (%) (pH 8.0): 17.0%
Product distribution after 24 hours 2a (%) (pH 9.0): 57.8%
Product distribution after 24 hours 3a (%) (pH 9.0): 22.0%
Product distribution after 24 hours 5a (%) (pH 9.0): 20.2%
B2: CO-20: alkene cleavage oxygenase, Pseudomonas frederiksbergensis, SEQ ID NO: 120 (protein, listed as Pseudomonas frederiksbergensis)
chain: MTHPFPQTPEFSGALYAPSRVEAEVFDLEVEGTLPDSIRGAFYQVAPDPQYPPMLGNDIFFNGDGMVSAFNFADGKVSMRRRYVKTDRLMAQRREGRSLNGVYRNVFTNDPLAAKNNTTANTSVVAHNGVLLALKEDALPWAMDLETLETLGEWSFDGQIESATFTAHPKLDPVTGNLLAFSYEAKGDGTPDLAYFELSPDGKLLHQIWFQAPYAAMVHDFAVTEHYVVFPLIPLTVDVERMKNGGQHFQWQPDLPQLFAVVPRNGHAEDVRWFKGPKDGFQGHTLNAFDEDDKVYVDMPVTGGNIFYFFPQADGYVPPPETLAASLMRWTFDLTSTQDDIQPQPLTDYPCEFPRCDDRYIGRKYEHGFVLAFDPERPYNPANGPIPFQFFNLLARVNLKTGATDAWFPGDSGCFQEPIFIPRAPDAQEADGYVVALLNLIAEGRSELVVLDSRDMASGPIARIKVPFRLRMSLHGCWVPSKK

Product distribution after 24 hours 2a (%) (pH 8.0): 68.3%
Product distribution after 24 hours 3a (%) (pH 8.0): 13.5%
Product distribution after 24 hours 5a (%) (pH 8.0): 18.2%
Product distribution after 24 hours 2a (%) (pH 9.0): 61.2%
Product distribution after 24 hours 3a (%) (pH 9.0): 16.5%
Product distribution after 24 hours 5a (%) (pH 9.0): 22.2%
B3: CO-15: alkene cleavage oxygenase, Herbaspirillum sp., SEQ ID NO: 74 (protein, listed as Herbaspirillum sp.)
chain: MNIRFSNNDFKSFEAPMRAEIELTGLEVVQGKVPKNLEGGFFRLIGDRKWPAFVDNDVFMLNEDGMASCFYFKDGKVDFRMRYVRTPRFVAEEKAGRALFGHYRNPFSDDPSVAGLSRGTANVTMLMHGGKLLALKEDSPAIELNPFTLETIGEYDWNGKVTAKAITAHPKIDAKTGELVFFGYCAAGPATRDIAYYEADSEGNVTHETWFHAPYTCMVHDIMVTQNYVVFPITPLRHELEWIKRSEPAFKWDPHESVYLGVLPRKGRGDQIRWFKGPNQCHGHTVGAYDDGRYIYADNTFSKRSFFHFFPNVDGSQFKPTDAMPYMKRVVIDMERSDNSFVEQPLFEYPCELPRIDTRFETLPYSFATMNLLDVPGQERVGRGFQWIATMDVNGAKPSKILYAGDNCSIGEPQFVPAHDNAAEGDGYIMTVVGRHEQMRSELLILDASDINAPPVATVALPFRLRSTGHGYWYGGRQLRGETNFPGAW

Product distribution after 24 hours 2a (%) (pH 8.0): 56.4%
Product distribution after 24 hours 3a (%) (pH 8.0): 26.4%
Product distribution after 24 hours 5a (%) (pH 8.0): 17.2%
Product distribution after 24 hours 2a (%) (pH 9.0): 45.3%
Product distribution after 24 hours 3a (%) (pH 9.0): 32.4%
Product distribution after 24 hours 5a (%) (pH 9.0): 22.3%
B4: CO-13: alkene cleavage oxygenase, Actinobacteria bacterium, SEQ ID NO: 64 (protein, listed as Actinobacteria bacterium)
chain: MVRFPPPKDPFDAPMRVEADIRGVQVTQGEVPEHLDGIYYRCVSDRQWPSYVENDLELFNSDGMIISFRFHKGRVDFKSRYVRTPRFVAEEKAGRALFGAYRNPFDDDPSVAGISRGLANTNVFYHGGKLYASKEDSPPILLDPITLETIGEYDFEGALTSRTSTAHPKFDPITGEMVFFGYEAKGPGTPDIAYYEADASGRIIHEAWLEAPYTSMVHDWAVTQNFVVFPIIPLRSDIEWIKQGRSYFQWDPYEDVYLGVMPRKGTAKDLRWYRGSNRFASHIMGAYDDGRYIYIDTPVGQTNYFPWFPDITGAPYDPERSKGYLSRWTIDTQGESDGFTETRLCDLPGEFPRMDDRQETLPYHWGIMLLTDGPGRVAPGGGFRWLMGIDLKTGRKQIYYPGDNCTLGEAIFVPAAPDAPPGVGYVFTVVARRAEMRSDLVILDAQHIDGEPVCTLSLPMRIRMGVHGNWVSAEELARRTA

Product distribution after 24 hours 2a (%) (pH 8.0): 69.0%
Product distribution after 24 hours 3a (%) (pH 8.0): 13.7%
Product distribution after 24 hours 5a (%) (pH 8.0): 17.3%
Product distribution after 24 hours 2a (%) (pH 9.0): 67.0%
Product distribution after 24 hours 3a (%) (pH 9.0): 13.6%
Product distribution after 24 hours 5a (%) (pH 9.0): 19.4%
B5: CO-23: alkene cleavage oxygenase, Pseudomonas viciae, SEQ ID NO: 130 (protein, listed as Pseudomonas viciae)
chain: MTIPFPQTPEFSGALYTPSRVEAEVFDLEIEGVLPASIGGTFYQVAPDPQYPPMLGNDIFFNGDGVVSRFNFANGKVSMRRRYVKTDRLLAQRREGRSLNGVYRNVYTNDRLAAKNNTTANTTVIPHNGVLLALKEDALPWAMDLDTLETLGEWTFDGQIKSATFTAHPKLDPVTGNLLACSYEAKGDGTPDLAYFEISPDGKLLHEIWFQAPYAAMVHDFAVTERYVVFPLIPLTVDVERMKNGGPHFQWQPDLPQLFAVVPRNGNAQDVRWFKGPKDGFQGHTLNAFDEDGKVYVDMPVTGGNIFYFFPQADGYVPPPETLAASLMRWTFDLNSALDEVEPQPLTDYPCEFPRCDDRYIGRKYQHGFLLAFDPERPYNPANGPIPFQFFNLLVHLNLKTGITDAWFPGDSGCFQEPIFIPRSADAEEADGYVVALLNLIAEGRSELVVLDSRDMASGPIARIRIPFRMRMSLHGCWTADPN

Product distribution after 24 hours 2a (%) (pH 8.0): 69.4%
Product distribution after 24 hours 3a (%) (pH 8.0): 15.0%
Product distribution after 24 hours 5a (%) (pH 8.0): 15.6%
Product distribution after 24 hours 2a (%) (pH 9.0): 63.2%
Product distribution after 24 hours 3a (%) (pH 9.0): 16.8%
Product distribution after 24 hours 5a (%) (pH 9.0): 20.0%
B6: CO-22: alkene cleavage oxygenase, Pseudomonas kilonensis, SEQ ID NO: 128 (protein, listed as Pseudomonas kilonensis)
chain: MTIPFPQTSEFSGALYTPSRVEAELFDLEVEGTLPAEIRGAFYQVAPDPQYPPMLGTDIFFNGDGMVTGFYFANGKVSMRRRYVKTDRLMAQRREGRSLNGVYRNLYTNDPLAAKNNTTANTTVIPHNGVLLALKEDALPWAMDLETLETLGEWTFDGQIKAATFTAHPKRDPATGNLLAFSYEAKGDGTPDIAYFEISPDGKLLHEIWFQAPYAAMVHDFAVTERYVVFPLIPLTVDVERMKNGGPHFQWQPDLPQLFAVVPRNGNAQDVRWFKGPKDSFQGHTLNAFDEDGKVYVDMPVTGGNVFYFFPQADGYVPPPETLAASLMRWTFDLSSPQDEVEPQPLTEYPCEFPRCDDRYIGRKYQHGFLLAFDPERPYNPANGPIPFQFFNLLVHLNLKTGSTDAWFPGDSGCFQEPIFIPRSADAEEADGYVVALLNLIAEGRSELVVLDSRDMAGGPIARIRIPFRMRMSLHGCWAPSD

Product distribution after 24 hours 2a (%) (pH 8.0): 76.0%
Product distribution after 24 hours 3a (%) (pH 8.0): 4.3%
Product distribution after 24 hours 5a (%) (pH 8.0): 19.7%
Product distribution after 24 hours 2a (%) (pH 9.0): 71.0%
Product distribution after 24 hours 3a (%) (pH 9.0): 5.5%
Product distribution after 24 hours 5a (%) (pH 9.0): 23.5%
B7: CO-16: alkene cleavage oxygenase, Valsa mali, SEQ ID NO: 76 (protein, listed as Valsa mali)
chain: MAHIFDIAPAVKGYASGRLAKPGDATTFPDTDVFRGINKPSRFEGDIFDLEVTGTIPKDIDGTFYRVQPDHRFPPLFEDDIHFNGDGSVTAIRISNGHADFKQRYVQTDRYKAETAARRSLFGRYRNPWTDNESVKGVIRTASNTNVTFWRGILLASKEDGPPFAMDPVTLETLGRYDFEGQIKAPTFTAHPKFDPDTGEMLCFAYEAGGDGNDGSCDVVVWTVDADGKKTEECWYKAPFAGMIHDMAVSKNFVVLPLTPLKVNMDRMKKGGEKFAWDPKEDQYYGLVPRRNAKPEDIRWFRADNGMAPFLKTLSTHCADTPASSAFQGHIAGCYENEEGHVVVDLTVADGNVFFWWPPDDGTAIPPGKKPNQLSSTTTRWILDPKAETNTRITPAYVWPTNGEFSRIDDRFVTKKYKHFWQAKVDPTRPYDFAKCGPPAGGLFNCLGHYTWSPDNPLAKGEEDVFFFGPTATVQEPSFIPKDEGGEGDGYLIALVNHLDVLRNDIAVFDAQHLAGGPLAVLHLPLKLKLGLHGNFVDHRDIEAWQRRRDAKGDVGPVKVATEPLPWQKSFWDRRQDGQNGGLNGTH
